These results are taken from IntAct's records for PubMed 19088199.

The chains are these.
B1: Indoleamine 2,3-dioxygenase 1 (Mus musculus), P28776 (parent)
chain: MALSKISPTEGSRRILEDHHIDEDVGFALPHPLVELPDAYSPWVLVARNLPVLIENGQLREEVEKLPTLSTDGLRGHRLQRLAHLALGYITMAYVWNRGDDDVRKVLPRNIAVPYCELSEKLGLPPILSYADCVLANWKKKDPNGPMTYENMDILFSFPGGDCDKGFFLVSLLVEIAASPAIKAIPTVSSAVERQDLKALEKALHDIATSLEKAKEIFKRMRDFVDPDTFFHVLRIYLSGWKCSSKLPEGLLYEGVWDTPKMFSGGSAGQSSIFQSLDVLLGIKHEAGKESPAEFLQEMREYMPPAHRNFLFFLESAPPVREFVISRHNEDLTKAYNECVNGLVSVRKFHLAIVDTYIMKPSKKKPTDGDKSEEPSNVESRGTGGTNPMTFLRSVKDTTEKALLSWP

Variants of B1 are the subject of this test. Particulars: with socs3_mouse Socs3, O35718.
socs3_mouse Socs3, O35718, sequence (O35718 whole entry): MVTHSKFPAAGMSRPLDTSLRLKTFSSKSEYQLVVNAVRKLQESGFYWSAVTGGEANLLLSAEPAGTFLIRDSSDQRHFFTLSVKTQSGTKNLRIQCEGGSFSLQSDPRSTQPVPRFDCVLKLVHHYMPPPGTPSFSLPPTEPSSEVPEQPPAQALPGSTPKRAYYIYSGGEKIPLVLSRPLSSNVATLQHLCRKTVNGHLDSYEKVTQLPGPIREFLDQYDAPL
Turning to Y115F;Y253F, the “effect of a mutation on the interaction” value is listed as “disrupting interaction”.
